US20250263467A1

Molecular target: SARS-CoV-2 Spike protein on pseudotyped virus (SARS-CoV-2 (Wuhan-Hu-1)) (UniProt P0DTC2)
Assay: cell-based or functional assay

## sotrovimab (antibody)
  EC50, neutralization of pseudotyped virus: 24.1 ng/mL

## S309 rIgG1-LS (antibody)
  maximum neutralization, VSV pseudotype, 293T ACE2 cells: 34%
  maximum neutralization, VSV pseudotype, A549-ACE2-TMPRSS2 clone 10 cells: 42%
  maximum neutralization, VSV pseudotype, Huh7 cells: 78%
  maximum neutralization, VSV pseudotype, MRC5-ACE2-TMPRSS2 cells: 45%
  maximum neutralization, VSV pseudotype, Vero E6-TMPRSS2 cells: 96%
  maximum neutralization, VSV pseudotype, Vero E6 cells: > 99%
